The target in one assay is T1, mouse Nectin-4 (Mus musculus, UniProt Q8R007).
T1 sequence (Q8R007 31-508): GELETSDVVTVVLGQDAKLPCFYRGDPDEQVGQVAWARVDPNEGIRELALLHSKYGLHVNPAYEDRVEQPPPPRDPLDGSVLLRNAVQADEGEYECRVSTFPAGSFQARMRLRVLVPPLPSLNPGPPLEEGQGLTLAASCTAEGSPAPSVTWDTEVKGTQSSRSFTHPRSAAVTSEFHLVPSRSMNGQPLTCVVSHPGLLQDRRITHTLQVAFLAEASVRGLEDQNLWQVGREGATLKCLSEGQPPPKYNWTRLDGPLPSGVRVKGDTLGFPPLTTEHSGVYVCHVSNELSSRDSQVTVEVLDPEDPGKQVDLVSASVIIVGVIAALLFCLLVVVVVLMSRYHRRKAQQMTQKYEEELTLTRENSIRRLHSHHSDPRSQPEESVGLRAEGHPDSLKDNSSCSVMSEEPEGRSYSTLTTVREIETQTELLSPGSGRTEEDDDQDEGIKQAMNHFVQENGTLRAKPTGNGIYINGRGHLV
Put plainly: Binding of purified humanized D6C mAbs to mouse Nectin-4. The following applies: mAb of hzD6C VH with the named VL. The protocol:
The humanized D6C VH region was combined with human IgG1 (SEQ ID NO:18) heavy chain constant region, and each humanized D6C VL region was combined individually with the human kappa light chain constant region (SEQ ID NO:20). The humanized D6C heavy chain (SEQ ID NO:24) was co-transfected with each humanized light chain (SEQ ID NOS:26-31) individually into CHO cells in a 30 mL culture, using the parental chimeric antibody, D6C, as a benchmark. A total of 7 mAbs were generated, purified, and analyzed for titer, purity, and binding.
Analytical size-exclusion chromatography was used to measure the percent purity (% protein of interest, POI), which is preferably 95% or greater. There was a reduction in percent purity seen with the chimeric D6C (84%) and the CDR grafted hzD6C VL (94%). The I2V, N33Q, and G34A mutations in hzD6.1C VL (98%), hzD6.2C VL (95%), and hzD6.3C VL (96%), respectively, as well as the […] N33Q double mutation hzD6.4C VL (99%), resolve the purity issue.

The target in assay [1] is T2, TIGIT binding to Nectin-4 expressing T24 tumor cells (Homo sapiens, UniProt Q96NY8).
T2 construct: expressed in transfected cells; host or cells: T24 clone, lentiviral transduction
T2 sequence (Q96NY8 32-510): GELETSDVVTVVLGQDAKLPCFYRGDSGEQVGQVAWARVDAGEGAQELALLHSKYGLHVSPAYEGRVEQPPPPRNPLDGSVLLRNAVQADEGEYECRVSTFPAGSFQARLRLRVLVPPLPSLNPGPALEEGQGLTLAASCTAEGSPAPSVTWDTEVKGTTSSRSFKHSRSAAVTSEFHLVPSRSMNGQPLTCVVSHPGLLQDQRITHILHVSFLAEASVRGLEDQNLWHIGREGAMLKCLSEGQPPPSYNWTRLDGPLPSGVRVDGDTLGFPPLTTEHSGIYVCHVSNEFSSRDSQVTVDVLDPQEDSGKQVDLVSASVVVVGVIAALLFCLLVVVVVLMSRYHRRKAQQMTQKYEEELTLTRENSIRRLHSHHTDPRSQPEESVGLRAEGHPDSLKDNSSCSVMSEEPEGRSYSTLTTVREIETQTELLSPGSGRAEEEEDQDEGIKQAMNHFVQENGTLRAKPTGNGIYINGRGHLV
Put plainly: Blocking of TIGIT-Fc binding to Nectin-4 expressing T24 tumor cells. The assay is classed as cell-based. The following applies: rhTIGIT-Fc 40 nM; antibody at various concentrations from 400 nM, 1:2 dilutions. The text has this:
Anti-Nectin-4 antibody was examined to determine whether it could block binding of TIGIT to Nectin-4 expressing T24 tumor cells. Stable Nectin-4 expression in a T24 clone was achieved by Nectin4-lentiviral transduction. Recombinant human TIGIT-Fc chimera was purchased from R & D Systems. Briefly, cell binding was examined on Nectin-4 expressing T24 cells, which were dispensed into wells of V-bottom 96-well assay plates (1×10^5 cells/well), spun down, and the supernatant discarded. The cells were incubated with an anti-Nectin-4 antibody (hzD6.2C-mIgG2a) or an isotype control (mIgG2a) at eight different concentrations, starting with 400 nM and then 1:2 serial dilution, incubated at 4° C. for 30 min., and then rhTIGIT-Fc was added to each well at a final concentration of 40 nM. The treated cells were incubated at 4° C. for 30 min., washed three times, and then commercial PE anti-human Fc as a secondary antibody (1:200 dilution) was added and incubated at 4° C. for 20 min. The cells were washed twice and analyzed on BD Celesta™ flow cytometry. Percent of inhibition of TIGT (40 nM) binding due to anti-Nectin-4 antibody present was measured.

B1: hzD6.3C VL: "CDR1 mutation to remove a potential deamidation site ... hzD6.3C VL N33Q (position 30c under Kabat), SEQ ID NO:15" (antibody, V domains shown)
VL: DIVMTQTPLSLPVTPGEPASISCRSSQSIVHSQGNTYLEWYLQKPGQSPQLLIYKVSNRFSGVPDRFSGSGSGTDFTLKISRVEAEDVGVYYCFQGSHVPYTFGGGTKVEIK
modifications: Synthetic sequence hzD6.3C VL
For the molecule B1, in the assay with mouse Nectin-4, the “binding to mouse Nectin-4” value is listed as “no binding”.

B2: hzD6.4C VL: "a FR1 and a CDR1 mutation (hzD6.4C VL I2V N33Q (positions 2 and 30c under Kabat), SEQ ID NO:16" (antibody, V domains shown)
VL: DVVMTQTPLSLPVTPGEPASISCRSSQSIVHSQGNTYLEWYLQKPGQSPQLLIYKVSNRFSGVPDRFSGSGSGTDFTLKISRVEAEDVGVYYCFQGSHVPYTFGGGTKVEIK
modifications: Synthetic sequence hzD6.4C VL
In the case of B2, in the assay with mouse Nectin-4, the “binding to mouse Nectin-4” value is “no binding”.

B3: hzD6.2C-mIgG2a: "an anti-Nectin-4 antibody (hzD6.2C-mIgG2a)" (antibody, V domains shown)
VH: EVQLVESGGGLVQPGGSLRLSCAASGFTFSNYDMSWVRQAPGKGLEWVATISSGGSYTYYVDSVKGRFTISRDNAKNSLYLQMNSLRAEDTAVYYCARQELGSYYAMDYWGQGTTVTVSS
VL: DIVMTQTPLSLPVTPGEPASISCRSSQSIVHSNANTYLEWYLQKPGQSPQLLIYKVSNRFSGVPDRFSGSGSGTDFTLKISRVEAEDVGVYYCFQGSHVPYTFGGGTKVEIK
B3: the “blocking of TIGIT binding” value in assay [1] was “more than 70%”.

For the origin of these results see US12364768B2, “Nectin-4 antibody conjugates and uses thereof” (ARARIS BIOTECH AG, priority 2020, dated 2025).
